In the RNAGym collection of RNA variant scans (doi:10.7554/elife.80360):

B1: Hammerhead Ribozyme (parent)
chain: ACCGGAUGUGCUUUCCGGUCUGAUGAGUCCGUGAGGACGAAACAG

Variants of: B1
Assay: self-cleavage, relative activity (ratio to wild type); higher = more cleavage; co-transcriptional

Variant	self-cleavage
ACUGGAUGUGCUUCCCGGUCUGAUGAGUCCGUGAGGACGAAACAG [C3U U14C]	0.669
UCCCGAUGUGCUUUCCGGUCUGAUGAGUCCGUGAGGACGAAACAG [A1U G4C]	0.353
AGCGGAUGUGCUUUCCGGUCUGAUGAGUCCGUGAGGACGAUACAG [C2G A41U]	0.293
AGCGGAUGUGCUUUCCGGUCUGCUGAGUCCGUGAGGACGAAACAG [C2G A23C]	0.294
ACCGAAUGUGCUUUCCGGUCUGAUGAGUCCUUGAGGACGAAACAG [G5A G31U]	1.61
ACCGGACGUGCUUUCCGGUCUGAUGAGUGCGUGAGGACGAAACAG [U7C C29G]	0.514
AACGGAUGUGCGUUCCGGUCUGAUGAGUCCGUGAGGACGAAACAG [C2A U12G]	0.736
ACCGGGUGUGCUUUCCGGUCUGAUGAGUCCGUGAUGACGAAACAG [A6G G35U]	0.465
ACCGGAUGUGCUUUCCGGUCUGAUGAGUCCGUGAGGCGGAAACAG [A37C C38G]	0.381
ACCGGACGUGCUUUCCGGUCUGAUGAGUCCGUGAGGACGAAACGG [U7C A44G]	1.13
ACCGGAUGUGCUAACCGGUCUGAUGAGUCCGUGAGGACGAAACAG [U13A U14A]	1.15
ACCGGAUGUGCUUUCCGGUCUGAUGAGUCCGUGAGGACUAAACAC [G39U G45C]	0.408
ACCGGAGGUGCUUUCCGGUCUGAUUAGUCCGUGAGGACGAAACAG [U7G G25U]	0.333
ACCGGAUGUGCUUUCCGGUCUGAUGAACCCGUGAGGACGAAACAG [G27A U28C]	0.645
ACCGGAUGUGGUCUCCGGUCUGAUGAGUCCGUGAGGACGAAACAG [C11G U13C]	1.32
ACCGGAUGUGCUUCCCGGUCUGAUGAGUCCGUGAGGACGAAACAC [U14C G45C]	0.441
ACCGGAUGUGCUUUCCGGUCUGAUGAGUCCGUUAGGACGAAGCAG [G33U A42G]	0.312
ACCGGAUGUGCUUUCCGGUCUGAUGAGUCCGUGAAGACGAAGCAG [G35A A42G]	0.252
ACCGGAUGUGCUUUCCGGUCCGCUGAGUCCGUGAGGACGAAACAG [U21C A23C]	0.771
ACCGGAUGUGCUUUCCGGUCUUAUGAGUCCGUGAGGACGAAACGG [G22U A44G]	0.711
ACCGGAUGUGCUUUACGGUCUUAUGAGUCCGUGAGGACGAAACAG [C15A G22U]	0.303
CCCGGAUGUGCUUUCCGGUCUGAUGAGUCCGAGAGGACGAAACAG [A1C U32A]	0.363
ACCGGAUGUGCUUUACGGUCUGAUUAGUCCGUGAGGACGAAACAG [C15A G25U]	0.339

Variant	self-cleavage
ACCCGAUGUGCUUUGCGGUCUGAUGAGUCCGUGAGGACGAAACAG [G4C C15G]	0.929
ACCGGAUUUGCUUUCCGGUCUGAUGAGUCUGUGAGGACGAAACAG [G8U C30U]	0.942
ACCGGAUGUGCUUUCCGGUCUGAUGAGUCCGUGAUGACGAAGCAG [G35U A42G]	0.253
ACCGGAUGUGCUUUCCGGUCUGAUGAGUCCAUGAGGACGAAUCAG [G31A A42U]	0.335
AUCGGAUGUGCUUUCCGGGCUGAUGAGUCCGUGAGGACGAAACAG [C2U U19G]	0.319
ACCGGAUGUGCUUUCCGCUCUGAUGAGUCCGUGAGGACGUAACAG [G18C A40U]	0.339
ACCGGCUGUGCUUUCCGGUCUGAUGUGUCCGUGAGGACGAAACAG [A6C A26U]	0.337
ACCGGAUGUGCUUACCGGUCUGAAGAGUCCGUGAGGACGAAACAG [U14A U24A]	0.627
ACCGGAUGUGCUUUCCGGUCUGACGAGUCCGUGAGGUCGAAACAG [U24C A37U]	0.768
ACCGGAUGUGCUUUCCGGUCUGAUGAGACCGUGAGGAAGAAACAG [U28A C38A]	0.726
ACCGGAUGUGCUUUCCGGUCUGAUGUGUCCGUGAGGACGUAACAG [A26U A40U]	0.341
ACCGGAUGUGCUUUCCGGUCUGAUGAGUCUGUUAGGACGAAACAG [C30U G33U]	1.18
ACCGGAUGUGCUUUCCGGGCUGAUGCGUCCGUGAGGACGAAACAG [U19G A26C]	0.323
ACCGGAUGUGCUUGCCGGUGUGAUGAGUCCGUGAGGACGAAACAG [U14G C20G]	0.297
ACCGGAUGGGCUUUCCGGUCUGAUGAGUCCGUGAGGACGAACCAG [U9G A42C]	0.303
ACCGGAUGUGCGUUCCGGUCUGAUGAGACCGUGAGGACGAAACAG [U12G U28A]	0.666
ACCGGAUGUGCUUUCCGGUCUGAUCAGUCCGUGAGGACGAAACCG [G25C A44C]	0.29
ACCGGAUGUGCUUUCCGGUCAGUUGAGUCCGUGAGGACGAAACAG [U21A A23U]	0.34
ACCGGAUGUGCUUUCCGGUCUGAGGAGUCCGUCAGGACGAAACAG [U24G G33C]	0.81
ACCGGAUGUGCUUUCCGGUCUGAUGAGUCCGUGUGGACGAAACAG [A34U]	0.926
ACCGAAUCUGCUUUCCGGUCUGAUGAGUCCGUGAGGACGAAACAG [G5A G8C]	0.954
ACCGGAUCUGCUUUCCGGUCUGAUGAGUCCGUGAGGAGGAAACAG [G8C C38G]	0.596
ACCGGAUAUGCUUUCCUGUCUGAUGAGUCCGUGAGGACGAAACAG [G8A G17U]	0.837

Variant	self-cleavage
ACCGGAUGUUCUUUCCGGUCUGAUGAGUCCGUUAGGACGAAACAG [G10U G33U]	1.05
ACCGGAUGUGCUUUCCGGCCUGAUGAGUCCGUGAGGGCGAAACAG [U19C A37G]	0.41
AACGGAUGUGCUUUCCGGUCUGAUGAGUCCGUGAGGACGAGACAG [C2A A41G]	0.294
ACCGGAUGUGCUUUCCGGUCUGGUGAGUCCAUGAGGACGAAACAG [A23G G31A]	0.403
ACCGGAUGUGCUUUGCGGUCUGAUGAUUCCGUGAGGACGAAACAG [C15G G27U]	0.339
ACCGGAUGUGCUGUCCGGUCUGAUGAGUUCGUGAGGACGAAACAG [U13G C29U]	0.82
ACCGGAUGUGCUAUCCGGUCUGAUGAGUCCGUGACGACGAAACAG [U13A G35C]	0.799
ACCGGAUGUGCUUUCCGGUAUGAUGAGUCCCUGAGGACGAAACAG [C20A G31C]	0.412
ACCGGAUGUGCUUUCCGGUCUGAAGAGUCCGUGAGGACGAAACUG [U24A A44U]	0.712
ACCGGAUGUGCUUUCCGGUGUGAUGAGUCCGUGAGGACGAAACCG [C20G A44C]	0.278
ACCGGAUGUGCUUUCCGGUCGGAUGAGUCCGUGAGGACGAAGCAG [U21G A42G]	0.223
ACCGGAUGUGCUUUCCGGUCUGAUGAGUCGGUGUGGACGAAACAG [C30G A34U]	0.888
ACCGGAUGUGCUUUCCGUUCUGAUGAGUCCGUGAGGGCGAAACAG [G18U A37G]	0.629
ACCGGAUGUGCUCUCCGGUCUGAUGAGUCCGUGAGGACGAAACAG [U13C]	1.12
ACCGGACGUGCUUGCCGGUCUGAUGAGUCCGUGAGGACGAAACAG [U7C U14G]	0.975
ACCGGAUGUGCUUUCCGGUCUGAUGAGUCCGUGAGGACGAAGAAG [A42G C43A]	0.309
ACCGGAUGCGCUUUCCGGUGUGAUGAGUCCGUGAGGACGAAACAG [U9C C20G]	0.437
ACCGGAUGUGCUUGCCGGUCUUAUGAGUCCGUGAGGACGAAACAG [U14G G22U]	0.394
ACCGGAUGUGCUUUCCGUUUUGAUGAGUCCGUGAGGACGAAACAG [G18U C20U]	0.437
ACCGGAUCUGCUUUCCGGUCUGAUGAGUCCGUGAGCACGAAACAG [G8C G36C]	0.791
ACCGGAUGUGCUUUCCGGUCUGCUGAGUCCGUGACGACGAAACAG [A23C G35C]	0.408
ACCGGAUGUGCUUUCCGGUCUGGGGAGUCCGUGAGGACGAAACAG [A23G U24G]	0.283
ACCGGAUGUGCUUUCCUGUCUGAUGAGUCCGUGAGGACGACACAG [G17U A41C]	0.365

Variant	self-cleavage
ACCGGAUGUGCUUUCCGGUCUGAUGAGUCCGUGAAGACGAAACAC [G35A G45C]	0.437
AUCGGAUGUGCUUUCCGGUCUGAUGAGUCCGUGAGGACGAAACGG [C2U A44G]	1.55
ACCGGAUGUGCGUUCCGGUCUGAUGAGUUCGUGAGGACGAAACAG [U12G C29U]	0.541
ACCGGAUGUGCUUUCCGGUCUGAUGAGUCCGUGAGCACGAAACGG [G36C A44G]	0.588
ACCGGAUGUGCUUUCCGAUCUGAGGAGUCCGUGAGGACGAAACAG [G18A U24G]	0.678
ACUGGAUGUGCUUUCCGGUCUGAUGAGUCGGUGAGGACGAAACAG [C3U C30G]	0.727
ACCGGAUGUGCUUUCCGGUCUGAUGAGUUCUUGAGGACGAAACAG [C29U G31U]	0.783
GCCGGAUGUGCUUUCCGGUCUGAUGAGUCCGUGAAGACGAAACAG [A1G G35A]	1.23
ACCGGAUUUGCUUUCCGGUCUGAUGACUCCGUGAGGACGAAACAG [G8U G27C]	0.794
ACCCGAUGUGCUUUCCGGUCUGAUCAGUCCGUGAGGACGAAACAG [G4C G25C]	0.289
ACCGGUUGUGCUUUCCGGUCAGAUGAGUCCGUGAGGACGAAACAG [A6U U21A]	0.517
ACCGGAUGUGCUUUGCGGUCUGAUGAGUCCGUGAGGACGAACCAG [C15G A42C]	0.277
ACCGGAUGUGCUUUCCGGUCUGAUGAGUCCGUUAGGACGAAACCG [G33U A44C]	0.596
GCCGGAUGUGCUUUCCGGUCUGAUGAGUGCGUGAGGACGAAACAG [A1G C29G]	1.02
ACCGGAUGUGCUUUCCGGUCUGAUGAGUUCGUGGGGACGAAACAG [C29U A34G]	0.657
ACCGGAUGUGCUUUCCGGUCUGAUGAGCCCGUGAGGAUGAAACAG [U28C C38U]	1.01
ACAGGAGGUGCUUUCCGGUCUGAUGAGUCCGUGAGGACGAAACAG [C3A U7G]	0.7
ACCGGAUCUGUUUUCCGGUCUGAUGAGUCCGUGAGGACGAAACAG [G8C C11U]	1.02
ACGGGAUGUGCUUUCCGGUCUGAUGAGUCCGUGAGGACGAAACUG [C3G A44U]	0.32
AUCGGAUGUGCUUUCCGGUCUGAUGAGUCCGUGAGGCCGAAACAG [C2U A37C]	0.782
ACCGGAUAUGCUUUCCGGUCUGAUGAGUCCGUGAGGACGGAACAG [G8A A40G]	0.235
ACCGGAUGUGCUUUCCGGUCUUAUGAGUCCGUGAGGACGACACAG [G22U A41C]	0.372
ACCGGAUGAGCUUUCCGGUCUGAUGAGUUCGUGAGGACGAAACAG [U9A C29U]	0.829

Variant	self-cleavage
ACCGGAUGUGCUCACCGGUCUGAUGAGUCCGUGAGGACGAAACAG [U13C U14A]	0.621
ACCGGAUGUGCUUUCGGGUCUGAUGAGUCCGUGAGGACGAACCAG [C16G A42C]	0.334
ACCGGAUGUGCUGUCCGGUCUGAUGAGUCCAUGAGGACGAAACAG [U13G G31A]	1.1
ACCGGAUGUGCUUACCGGUCUGAUGAGUCCGUGAGGACGAUACAG [U14A A41U]	0.296
ACCGGAUGUACUUUCAGGUCUGAUGAGUCCGUGAGGACGAAACAG [G10A C16A]	1.4
ACCGGAUAUGCUUUGCGGUCUGAUGAGUCCGUGAGGACGAAACAG [G8A C15G]	0.957
ACCGGAUGGGCUUUCCGGUCUGAUGAGUUCGUGAGGACGAAACAG [U9G C29U]	0.713
ACCGGGUGUGCCUUCCGGUCUGAUGAGUCCGUGAGGACGAAACAG [A6G U12C]	0.802
ACCGGAUGUGCUUUCCGGUCUGAUGAGUCCGUGAGGAGGAAACAU [C38G G45U]	0.562
ACCGGAUGUGCUUUCCGGUAUGAUGAGUCCGUGAGGACGAAGCAG [C20A A42G]	0.341
ACGGGAUGUGCUUUCCUGUCUGAUGAGUCCGUGAGGACGAAACAG [C3G G17U]	0.583
ACCGGAUGUGCUUUCCCGUCUGAUGAGUCCGUGAGGACGAAACAG [G17C]	0.575
ACCGGAUGUGCUUUCCGGUCUGAUGAGUCCGAGAGGACGAAAGAG [U32A C43G]	0.484
ACCGGAUGUGCUUUCGGGUCUGAAGAGUCCGUGAGGACGAAACAG [C16G U24A]	0.751
CCCGGAUGUGCUUUCCGGUCUGAUGAGUCCGUGAGGACCAAACAG [A1C G39C]	0.344
ACCGGAUGUGCUUUCCGGCCUGCUGAGUCCGUGAGGACGAAACAG [U19C A23C]	0.299
ACCGGAUGUGCUUUCCGGUCUGAUGAGUCCGUUAGGACCAAACAG [G33U G39C]	0.464
ACCGGAUGGGCUUUCCGGCCUGAUGAGUCCGUGAGGACGAAACAG [U9G U19C]	0.329
ACCGGAUGUGCUUUCCGGUCUGAUGAGUCCGUGAGGACGAAACGU [A44G G45U]	1.93
ACCGGAUGUGCAUUCCGGUCUGAUGAGUCCGUAAGGACGAAACAG [U12A G33A]	1.08
ACCGGAUAUGCUUUCCGGUCUGAUGACUCCGUGAGGACGAAACAG [G8A G27C]	0.665
ACCGGAUGUGCUUUCCGAUCUGAUGAGUCCGUGAUGACGAAACAG [G18A G35U]	0.594
